Assay results from publication PMC6495647, “Purification and interactions of the MucA’ and MucB proteins constituting the DNA polymerase RI”.

Assays:
MucA' = target: T1, MucA' (plasmid pKM101 (expressed in E. coli …, UniProt Q79BK8 26-146)); assay: SPR; MucA' alone; SPR (BIAcore 2000, SA chip): 20 mM HEPES pH 8.0, 50 mM K-glutamate, 10 mM Mg acetate, 5% glycerol, 0.1 mM EDTA, 2 mM DTT, 0.05% Surfactant P20 (1% P20 in MucB sample); temperature not stated; conditions: protein: recombinant; tags: none stated (pYG8506, pET-16b based); chain copies: 2; label: 5'-biotin; single strand
T1 sequence: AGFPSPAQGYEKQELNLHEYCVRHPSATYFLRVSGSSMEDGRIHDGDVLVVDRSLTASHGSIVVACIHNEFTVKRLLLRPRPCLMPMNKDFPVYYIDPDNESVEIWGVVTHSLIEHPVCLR

MucB = target: T2, MucB (plasmid pKM101 (expressed in E. coli …, UniProt Q79BK7 1-421)); assay: SPR; MucB 0.26 uM alone; 10 mM Mg acetate; SPR (BIAcore 2000, SA chip): 20 mM HEPES pH 8.0, 50 mM K-glutamate, 10 mM Mg acetate, 5% glycerol, 0.1 mM EDTA, 2 mM DTT, 0.05% Surfactant P20 (1% P20 in MucB sample); temperature not stated; conditions: protein: recombinant; tags: none stated (untagged construct pYG8512); label: 5'-biotin; single strand
T2 sequence: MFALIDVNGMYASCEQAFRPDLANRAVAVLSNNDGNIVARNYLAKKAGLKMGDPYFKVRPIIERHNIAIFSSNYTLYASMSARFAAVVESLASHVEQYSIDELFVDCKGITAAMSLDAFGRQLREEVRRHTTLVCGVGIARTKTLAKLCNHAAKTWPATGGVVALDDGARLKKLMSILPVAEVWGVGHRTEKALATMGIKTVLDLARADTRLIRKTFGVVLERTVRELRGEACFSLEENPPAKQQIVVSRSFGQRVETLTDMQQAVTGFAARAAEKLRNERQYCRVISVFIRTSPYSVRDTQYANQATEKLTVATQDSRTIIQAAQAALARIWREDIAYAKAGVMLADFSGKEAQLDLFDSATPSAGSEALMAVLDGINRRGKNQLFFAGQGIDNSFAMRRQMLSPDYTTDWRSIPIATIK

B1: 73-mer ssDNA oligonucleotide (ssDNA)
DNA: GCGGCGGTTGAGTAGCTCTTCTTCCAGCACGTTTTCGCCGATAATACCGGGATCGACCACGCCATCCATTACC
- binding result (MucA'): no binding
- binding result (MucB): binds
